Here are results for eight molecules from US20050203007A1 (REGENTS OF THE UNIVERSITY OF MICHIGAN, published 2005).

A word on the Ki: it is a dissociation constant, usually derived from enzyme kinetics or from competition with a known ligand. High values mean lower affinity, low ones higher affinity. By koff is commonly meant a measure of how fast the partners let go of each other.

Assay [1] concerns the target T1, secreted, soluble furin (human, UniProt P09958 108-715, limits assumed).
T1 construct: Secreted, soluble construct; also called human furin
The assay can be described thus: rapid inhibition assay; listed as potent inhibitor of furin. On the procedure:
(§1) 5. Rapid protease inhibition assay. Novel eglin variants were diluted 50-fold and incubated with secreted, soluble furin (0.5 nM) for 15 min in 96-well plates. The furin substrate (Boc-Arg-Val-Arg-Arg-MCA) was added, and release of AMC was monitored continuously in a 96-well fluorescence plate reader for 20 min, as described under Example 1. […] The plasmid DNA encoding such eglin c variant inhibitors were isolated and sequenced.

Assay [2] has as its target T2, subtilisin Carlsberg (UniProt P00780 106-379).
T2 sequence (looked up): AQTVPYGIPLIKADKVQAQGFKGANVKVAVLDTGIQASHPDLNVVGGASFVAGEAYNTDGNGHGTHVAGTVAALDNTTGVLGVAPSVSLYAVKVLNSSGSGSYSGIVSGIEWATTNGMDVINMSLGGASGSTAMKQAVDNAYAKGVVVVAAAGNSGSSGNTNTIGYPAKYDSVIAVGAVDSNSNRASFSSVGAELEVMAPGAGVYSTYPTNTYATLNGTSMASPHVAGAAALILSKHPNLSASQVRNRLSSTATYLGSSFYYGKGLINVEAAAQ
The assay can be described thus: enzyme inhibition.

Assay [3] concerns the target trypsin. The assay can be described thus: enzyme inhibition.
For assay [4], the target named is T3, secreted, soluble Kex2 (Saccharomyces cerevisiae, UniProt P13134 114-613, limits assumed).
T3 construct: Secreted, soluble construct; also called kexin
T3 sequence (looked up): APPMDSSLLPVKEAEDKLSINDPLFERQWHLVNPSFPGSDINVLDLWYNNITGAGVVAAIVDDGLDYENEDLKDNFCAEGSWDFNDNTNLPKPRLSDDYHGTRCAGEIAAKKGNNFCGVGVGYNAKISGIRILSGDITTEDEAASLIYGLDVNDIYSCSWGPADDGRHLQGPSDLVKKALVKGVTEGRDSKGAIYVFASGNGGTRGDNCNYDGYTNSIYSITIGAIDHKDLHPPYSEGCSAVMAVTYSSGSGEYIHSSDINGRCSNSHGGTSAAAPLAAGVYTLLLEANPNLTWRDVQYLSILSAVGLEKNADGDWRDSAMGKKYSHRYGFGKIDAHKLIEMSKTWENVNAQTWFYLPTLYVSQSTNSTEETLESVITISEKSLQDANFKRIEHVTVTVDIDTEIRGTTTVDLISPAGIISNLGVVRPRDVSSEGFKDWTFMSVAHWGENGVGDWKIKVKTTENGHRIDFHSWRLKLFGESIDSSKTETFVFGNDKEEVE
Nature of the assay: equilibrium enzyme inhibition, fluorogenic substrate. On the procedure: (§2) Affinities of eglin variants with secreted, soluble Kex2 (hereafter “Kex2”; Brenner, C. and Fuller, R. S. (1992) Proc. Natl. Acad. Sci. USA 89: 922-926) and secreted, soluble furin (hereafter, “furin”; Bravo, D. A. et al (1994) J. Biol. Chem. 269: 25830-25837; and Komiyama & Fuller (2000) Biochemistry 39: 15156-15165) were measured by incubating variants with the enzymes (˜0.5 to 2.0 nM) for 45 min to 1 h at 21° C. in one of two enzyme assay buffers. For Kex2, the buffer was 200 mM Bistris (pH 7.27) containing 1 mM CaCl₂ and 0.1% Triton X-100; and for furin, the buffer was 20 mM NaMES (pH 7.0) containing 1 mM CaCl₂ and 0.1% Triton X-100 for furin. 100 to 200 μL aliquots of reaction mixtures were transferred into triplicate wells of opaque 96 well plates (Costar), and residual enzyme activity was measured with an fmax fluorescence micro plate reader (Molecular Devices) by monitoring hydrolysis of a fluorogenic substrate Boc-Arg-Val-Arg-Arg-MCA. Data were graphically analyzed (KaleidaGraph) with an equation developed by Green and Work (1953). Site-directed mutagenesis at P2 and P6 of eglin c generated temporary inhibitors (Table 3) and exhausted possibility to improve affinity further with this approach.

The target of assay [5] is T1, secreted, soluble furin. The description is as above. On the procedure: as §2
The target in assay [6] is T3, secreted, soluble Kex2. Nature of the assay: equilibrium enzyme inhibition. As to the method:
(§3) Thus, R1-eglin refers to substitution of Arg at position P1.
(§4) Affinities of eglin variants with secreted, soluble Kex2 (hereafter “Kex2”; Brenner, C. and Fuller, R. S. (1992) Proc. Natl. Acad. Sci. USA 89: 922-926) and secreted, soluble furin (hereafter, “furin”; Bravo, D. A. et al (1994) J. Biol. Chem. 269: 25830-25837; and Komiyama & Fuller (2000) Biochemistry 39: 15156-15165) were measured by incubating variants with the enzymes (˜0.5 to 2.0 nM) for 45 min to 1 h at 21° C. in one of two enzyme assay buffers. For Kex2, the buffer was 200 mM Bistris (pH 7.27) containing 1 mM CaCl₂ and 0.1% Triton X-100; and for furin, the buffer was 20 mM NaMES (pH 7.0) containing 1 mM CaCl₂ and 0.1% Triton X-100 for furin.

For assay [7], the target named is T1, secreted, soluble furin. The assay can be described thus: equilibrium enzyme inhibition. On the procedure:
as §3, §4

The next assay deals with human plasma kallikrein (human, UniProt P03952 20-638). The assay can be described thus: enzyme inhibition; weak inhibition.
A further assay has as its target human plasmin (human, UniProt P00747 97-810, limits assumed). Nature of the assay: enzyme inhibition; weak inhibition.
Assay [8] has as its target T2, subtilisin Carlsberg. The assay can be described thus: enzyme inhibition, standard assay conditions.
The target of assay [9] is T4, human neutrophil elastase (human, UniProt P08246 30-247).
T4 sequence (looked up): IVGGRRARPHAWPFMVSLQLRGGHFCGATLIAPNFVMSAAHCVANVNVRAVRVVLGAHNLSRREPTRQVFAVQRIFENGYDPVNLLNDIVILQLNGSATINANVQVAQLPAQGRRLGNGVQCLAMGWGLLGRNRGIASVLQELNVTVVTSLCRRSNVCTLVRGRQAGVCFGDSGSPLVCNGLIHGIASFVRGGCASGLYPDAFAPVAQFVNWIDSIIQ
Nature of the assay: enzyme inhibition, standard assay conditions.

Another assay concerns the target chymotrypsin. Nature of the assay: enzyme inhibition, standard assay conditions.
For assay [10], the target named is T3, secreted, soluble Kex2. The assay can be described thus: enzyme inhibition, purified variant. As to the method:
as §2

The target of assay [11] is T1, secreted, soluble furin. Nature of the assay: enzyme inhibition, purified variant. As to the method: as §2
The target of assay [12] is T1, secreted, soluble furin. Nature of the assay: calculated from kon (progress curves) and Ka. On the procedure: (§5) In some aspects of the present invention, biological application of the eglin c variants of the present invention as inhibitors of processing in vivo depends upon the rate of binding to target enzymes, where it is critical. Therefore, the rate of action of eglin variants with Kex2 and furin was examined by incubating 5×10⁻¹⁰ M enzyme with inhibitor at molar ratios of inhibitor to enzyme ranging from 10 to 80. […] The relationship between kobs and inhibitor concentration was linear. The values of kₒₙ were determined from the slope of such curves, and dissociation rate constants (koff) were calculated (koff=kₒₙ/Kₐ). For R4R1-eglin, koff was calculated to be 2×10⁻⁴s⁻¹ for Kex2, and 3×10⁻⁴s⁻¹ for furin. […] Similarly, the t_{1/2} of the complex of M4R1-eglin with Kex2 was estimated to be 3 h. For complex of R4K1-eglin with furin, koff was calculated to be 2×10⁻⁴s⁻¹ implying that the koff and t_{1/2} for this complex are similar to those for the complex of R4R1-eglin with furin.

Assay [13] addresses T3, secreted, soluble Kex2. Nature of the assay: estimated from koff. As to the method:
as §5

Assay [14] has as its target trypsin. Nature of the assay: enzyme inhibition; temporary inhibitor of trypsin.
Assay [15] addresses T3, secreted, soluble Kex2. Nature of the assay: rapid inhibition assay; listed as potent inhibitor of Kex2.
Assay [16] addresses T1, secreted, soluble furin. The assay can be described thus: rapid furin inhibition assay; table lists substitutions with equal or enhanced inhibition of furin relative to the template. On the procedure: 3. Rapid screening of libraries. Libraries were introduced into E. coli BL21 (DE3) cells and individual, cloned transformants were grown by shaking at 37° C. in 200 μl LB containing […] kanamycin in 96-well, 0.45 μm GHP membrane filter plates (Gelman) (FIG. 2). When O.D. 600 values reached 0.4, 60 μl of culture were transferred to secondary 96-well plates (Falcon), adjusted to 10% glycerol, and stored at −80° C. These frozen stocks served as master copies of the libraries. IPTG was added to the cultures to a final concentration of 1 mM, and the cultures were allowed to express eglin c variants for one hour in the filter plate. Expressed eglin c variants were extracted from the cells with 50 mM Tris-HCl pH 8.0 containing 2 mM EDTA following freezing and thawing. These extracts were collected as filtrates by centrifugation of the filter plate above a second plate. The filtrates, representing partially purified eglin c variants, were analyzed using a rapid fluorescence-based assay for processing enzyme inhibition as described below in Section 5. […] Frozen cells were cultured in 50 to 100 ml culture volumes, and DNA maxipreps were performed; the DNA preparations were then sequenced by automated DNA sequencing. Selected variants were expressed and purified on a larger scale, and affinities for furin or Kex2 were examined quantitatively (see below).
as §1

T1 sequence (P09958 108-715 limits assumed): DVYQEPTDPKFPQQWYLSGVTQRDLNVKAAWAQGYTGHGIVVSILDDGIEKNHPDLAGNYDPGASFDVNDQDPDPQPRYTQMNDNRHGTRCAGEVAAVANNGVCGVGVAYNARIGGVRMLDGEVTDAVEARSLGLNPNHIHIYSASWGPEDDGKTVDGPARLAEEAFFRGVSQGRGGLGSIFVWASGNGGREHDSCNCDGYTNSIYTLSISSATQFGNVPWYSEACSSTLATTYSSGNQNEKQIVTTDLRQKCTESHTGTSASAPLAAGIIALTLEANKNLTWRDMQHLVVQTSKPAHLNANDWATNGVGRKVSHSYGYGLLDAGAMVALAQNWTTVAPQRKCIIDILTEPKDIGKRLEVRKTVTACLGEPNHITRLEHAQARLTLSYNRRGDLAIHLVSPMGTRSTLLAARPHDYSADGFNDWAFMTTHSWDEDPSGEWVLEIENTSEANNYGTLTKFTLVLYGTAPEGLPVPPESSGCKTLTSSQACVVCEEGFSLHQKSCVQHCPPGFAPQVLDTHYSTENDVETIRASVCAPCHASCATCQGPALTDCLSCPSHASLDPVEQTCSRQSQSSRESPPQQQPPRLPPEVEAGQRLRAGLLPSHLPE
Sequence of trypsin (P00760 24-246): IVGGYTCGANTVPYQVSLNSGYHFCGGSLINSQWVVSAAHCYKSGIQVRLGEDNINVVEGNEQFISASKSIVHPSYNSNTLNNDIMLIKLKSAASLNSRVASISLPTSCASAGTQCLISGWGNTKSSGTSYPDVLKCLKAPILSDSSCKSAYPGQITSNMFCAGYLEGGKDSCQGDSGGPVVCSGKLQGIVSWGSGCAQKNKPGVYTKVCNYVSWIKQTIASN
Sequence of human plasma kallikrein (P03952 20-638 limits assumed): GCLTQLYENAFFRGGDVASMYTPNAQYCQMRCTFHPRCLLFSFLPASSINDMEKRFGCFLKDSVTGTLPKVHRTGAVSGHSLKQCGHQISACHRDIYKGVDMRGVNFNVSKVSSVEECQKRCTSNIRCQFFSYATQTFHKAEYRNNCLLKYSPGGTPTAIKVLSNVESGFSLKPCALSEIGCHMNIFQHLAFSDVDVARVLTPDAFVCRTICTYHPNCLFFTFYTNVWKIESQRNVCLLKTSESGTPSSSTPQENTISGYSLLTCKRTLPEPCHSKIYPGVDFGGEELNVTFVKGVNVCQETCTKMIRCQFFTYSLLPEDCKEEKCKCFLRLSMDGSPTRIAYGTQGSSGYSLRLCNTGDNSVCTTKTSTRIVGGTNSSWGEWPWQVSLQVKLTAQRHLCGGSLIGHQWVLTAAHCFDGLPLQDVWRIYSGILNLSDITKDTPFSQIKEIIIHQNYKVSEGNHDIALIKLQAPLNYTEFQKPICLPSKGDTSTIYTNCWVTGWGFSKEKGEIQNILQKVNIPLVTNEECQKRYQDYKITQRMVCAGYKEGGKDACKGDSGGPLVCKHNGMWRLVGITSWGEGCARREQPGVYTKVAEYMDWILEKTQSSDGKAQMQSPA
Sequence of human plasmin (P00747 97-810 limits assumed): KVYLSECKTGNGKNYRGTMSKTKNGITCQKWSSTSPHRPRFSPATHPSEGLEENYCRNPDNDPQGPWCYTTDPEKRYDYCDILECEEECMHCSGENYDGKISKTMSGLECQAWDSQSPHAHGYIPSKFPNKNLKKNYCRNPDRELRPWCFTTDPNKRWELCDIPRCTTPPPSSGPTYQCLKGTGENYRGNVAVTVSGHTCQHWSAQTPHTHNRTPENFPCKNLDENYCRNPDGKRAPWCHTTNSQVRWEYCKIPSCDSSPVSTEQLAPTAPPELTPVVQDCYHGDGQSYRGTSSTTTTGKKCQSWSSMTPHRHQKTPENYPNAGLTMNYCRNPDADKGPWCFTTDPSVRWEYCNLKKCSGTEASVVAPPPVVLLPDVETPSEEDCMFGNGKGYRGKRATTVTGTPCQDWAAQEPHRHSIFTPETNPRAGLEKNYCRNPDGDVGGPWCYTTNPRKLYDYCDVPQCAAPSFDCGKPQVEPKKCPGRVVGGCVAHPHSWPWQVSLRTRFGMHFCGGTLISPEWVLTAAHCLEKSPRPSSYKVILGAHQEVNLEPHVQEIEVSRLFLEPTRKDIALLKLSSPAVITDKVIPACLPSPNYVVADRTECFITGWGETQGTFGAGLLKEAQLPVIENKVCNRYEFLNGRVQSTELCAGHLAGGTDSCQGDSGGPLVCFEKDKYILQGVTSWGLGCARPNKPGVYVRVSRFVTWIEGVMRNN

B1: Gly49-R4R1-eglin (Tyr49 to Gly) (designed binder)
chain: SMGSELKSFPEVVGKTVDQAREYFTLHYPQYDVYFLPEGSRVTRDLRGNRVRVFYNPGTNVVNHVPHVG
notes: tested as partially purified extract
In the case of B1, in the assay with secreted, soluble furin [1], the binding result was “binds”.

B2: R1-eglin (designed binder)
chain: SMGSELKSFPEVVGKTVDQAREYFTLHYPQYDVYFLPEGSPVTRDLRYNRVRVFYNPGTNVVNHVPHVG
notes: also called Arg45-eglin c
In the case of B2, the Ka in the assay with subtilisin Carlsberg [2] was 1e+10 M⁻¹; in the assay with trypsin [3], 1.8e+10 M⁻¹; in the assay with human plasma kallikrein it was ~1e+06 M⁻¹; with human plasmin it was ~1e+06 M⁻¹. In addition, the Ki in the assay with secreted, soluble Kex2 [4] was 30 nM; with secreted, soluble furin [5], 53 µM. The “fold increase in affinity relative to L1-eglin” value with secreted, soluble Kex2 [6] was 10000 fold; with secreted, soluble furin [7], 2.5 fold. Moreover, the “fold enhancement of affinity relative to L1-eglin” value with secreted, soluble furin [7] lay in the range of 2 to 3 fold.

B3: Pro38Leu Tyr49Cys R4R1-eglin (designed binder)
chain: SMGSELKSFPEVVGKTVDQAREYFTLHYPQYDVYFLLEGSRVTRDLRCNRVRVFYNPGTNVVNHVPHVG
notes: as for B1
B3: the binding result with secreted, soluble furin [1] is “binds”.

B4: L1-eglin (other)
chain: SMGSELKSFPEVVGKTVDQAREYFTLHYPQYDVYFLPEGSPVTLDLRYNRVRVFYNPGTNVVNHVPHVG
notes: Recombinant eglin with the natural reactive site loop; also called wild type eglin; wild type eglin (Leu45)
With B4, the Ki in the assay with secreted, soluble Kex2 [4] was ~500000 nM; with secreted, soluble furin [5], 120 µM. In addition, the Ka in the assay with subtilisin Carlsberg [8] amounted to 6.7e+10 M⁻¹; in [9], 4.5e+10 M⁻¹; with chymotrypsin, 1.1e+10 M⁻¹.

B5: R4K1-eglin (designed binder)
chain: SMGSELKSFPEVVGKTVDQAREYFTLHYPQYDVYFLPEGSRVTKDLRYNRVRVFYNPGTNVVNHVPHVG
notes: N-terminal Met removed; also called R4K1-template
For the molecule B5, the Ki is 2.5 nM with secreted, soluble Kex2 [10]; 38 nM with secreted, soluble furin [11]; 2.5 nM with secreted, soluble Kex2 [4]; 0.038 µM in the assay with secreted, soluble furin [5]. For the same molecule, the “Ki ratio (to R4K1- template)” value stood at 1 in the assay with secreted, soluble Kex2 [10] and 1 in the assay with secreted, soluble furin [11]. In addition, the koff with secreted, soluble furin [12] is 0.0002 s⁻¹. Besides, the “fold decrease of Ka relative to R4R1-eglin” value with secreted, soluble Kex2 [6] turned out to be 2.8 fold. Further, the “fold higher affinity for Kex2 than for furin” value with secreted, soluble Kex2 [6] was ~20 fold. For the same molecule, in the assay with secreted, soluble furin [7], the “fold reduction of Ka relative to R4R1-eglin” value stood at 15.4 fold.

B6: M4R1-eglin (designed binder)
chain: SMGSELKSFPEVVGKTVDQAREYFTLHYPQYDVYFLPEGSMVTRDLRYNRVRVFYNPGTNVVNHVPHVG
notes: N-terminal Met removed
For the molecule B6, the “half-life (t1/2) of the complex” value with secreted, soluble Kex2 [13] is 3 h. Besides, the Ka was 6.6e+10 M⁻¹ in the assay with subtilisin Carlsberg [2] and 4.4e+10 M⁻¹ with trypsin [14]. Also, the Ki stood at 0.34 nM with secreted, soluble Kex2 [4] and 3.6 µM with secreted, soluble furin [5]. The “fold higher affinity of Kex2 than of furin” value in the assay with secreted, soluble Kex2 [6] is ~10000 fold. For the same molecule, the “fold increase in Ka relative to R1-eglin” value with secreted, soluble Kex2 [6] is 88 fold. Moreover, the “fold increase in affinity relative to L1-eglin” value worked out at 1.5e+06 fold with secreted, soluble Kex2 [6] and 33 fold in the assay with secreted, soluble furin [7]. Further, the “fold increase in affinity relative to R1-eglin” value in the assay with secreted, soluble furin [7] is 15 fold.

B7: Tyr49Cys-R4R1-eglin (designed binder)
chain: SMGSELKSFPEVVGKTVDQAREYFTLHYPQYDVYFLPEGSRVTRDLRCNRVRVFYNPGTNVVNHVPHVG
notes: N-terminal Met removed; also called the Cys variant
With B7, the binding result with secreted, soluble Kex2 [15] is listed as “binds”; with secreted, soluble furin [16] it was “binds”.

B8: Val49-R4R1-eglin (Tyr49 to Val) (designed binder)
chain: SMGSELKSFPEVVGKTVDQAREYFTLHYPQYDVYFLPEGSRVTRDLRVNRVRVFYNPGTNVVNHVPHVG
notes: as for B1
In the case of B8, in the assay with secreted, soluble Kex2 [15], the binding result is given as “binds”.
